{"source": "patent US20130115220A1", "about": "“METHOD FOR PREVENTION OR TREATMENT OF METABOLIC SYNDROME” (DAINIPPON SUMITOMO PHARMA CO., LTD., priority 2010, published 2013)", "key": {"[1]": {"system": "3T3-L1 adipocytes", "experiment": "Expression of lipid droplet formation-related genes and PREF-1 by real-time PCR", "assay_type": "cell-based, mouse", "settings": "rAIM 5 μg/ml", "method": "rAIM was loaded (5 μg/ml) on 3T3-L1 adipocytes, mRNA of lipid droplet formation-related genes (FSP27, Perilipin, and Adipophilin) was measured on day 2, day 4, and day 6 using 7500 Fast Real-Time PCR system (Invitrogen; CA, USA) and by the ΔΔCT method (each n=3).\nSimilarly, mRNA of PREF-1 of preadipocyte marker was also measured. The measurement value was standardized with GAPDH.\nRelative expression level was determined with that on day 0 as 1.0."}, "[2]": {"target": "T1, FAS (Mus musculus, UniProt P19096)", "T1 sequence (P19096 whole entry)": "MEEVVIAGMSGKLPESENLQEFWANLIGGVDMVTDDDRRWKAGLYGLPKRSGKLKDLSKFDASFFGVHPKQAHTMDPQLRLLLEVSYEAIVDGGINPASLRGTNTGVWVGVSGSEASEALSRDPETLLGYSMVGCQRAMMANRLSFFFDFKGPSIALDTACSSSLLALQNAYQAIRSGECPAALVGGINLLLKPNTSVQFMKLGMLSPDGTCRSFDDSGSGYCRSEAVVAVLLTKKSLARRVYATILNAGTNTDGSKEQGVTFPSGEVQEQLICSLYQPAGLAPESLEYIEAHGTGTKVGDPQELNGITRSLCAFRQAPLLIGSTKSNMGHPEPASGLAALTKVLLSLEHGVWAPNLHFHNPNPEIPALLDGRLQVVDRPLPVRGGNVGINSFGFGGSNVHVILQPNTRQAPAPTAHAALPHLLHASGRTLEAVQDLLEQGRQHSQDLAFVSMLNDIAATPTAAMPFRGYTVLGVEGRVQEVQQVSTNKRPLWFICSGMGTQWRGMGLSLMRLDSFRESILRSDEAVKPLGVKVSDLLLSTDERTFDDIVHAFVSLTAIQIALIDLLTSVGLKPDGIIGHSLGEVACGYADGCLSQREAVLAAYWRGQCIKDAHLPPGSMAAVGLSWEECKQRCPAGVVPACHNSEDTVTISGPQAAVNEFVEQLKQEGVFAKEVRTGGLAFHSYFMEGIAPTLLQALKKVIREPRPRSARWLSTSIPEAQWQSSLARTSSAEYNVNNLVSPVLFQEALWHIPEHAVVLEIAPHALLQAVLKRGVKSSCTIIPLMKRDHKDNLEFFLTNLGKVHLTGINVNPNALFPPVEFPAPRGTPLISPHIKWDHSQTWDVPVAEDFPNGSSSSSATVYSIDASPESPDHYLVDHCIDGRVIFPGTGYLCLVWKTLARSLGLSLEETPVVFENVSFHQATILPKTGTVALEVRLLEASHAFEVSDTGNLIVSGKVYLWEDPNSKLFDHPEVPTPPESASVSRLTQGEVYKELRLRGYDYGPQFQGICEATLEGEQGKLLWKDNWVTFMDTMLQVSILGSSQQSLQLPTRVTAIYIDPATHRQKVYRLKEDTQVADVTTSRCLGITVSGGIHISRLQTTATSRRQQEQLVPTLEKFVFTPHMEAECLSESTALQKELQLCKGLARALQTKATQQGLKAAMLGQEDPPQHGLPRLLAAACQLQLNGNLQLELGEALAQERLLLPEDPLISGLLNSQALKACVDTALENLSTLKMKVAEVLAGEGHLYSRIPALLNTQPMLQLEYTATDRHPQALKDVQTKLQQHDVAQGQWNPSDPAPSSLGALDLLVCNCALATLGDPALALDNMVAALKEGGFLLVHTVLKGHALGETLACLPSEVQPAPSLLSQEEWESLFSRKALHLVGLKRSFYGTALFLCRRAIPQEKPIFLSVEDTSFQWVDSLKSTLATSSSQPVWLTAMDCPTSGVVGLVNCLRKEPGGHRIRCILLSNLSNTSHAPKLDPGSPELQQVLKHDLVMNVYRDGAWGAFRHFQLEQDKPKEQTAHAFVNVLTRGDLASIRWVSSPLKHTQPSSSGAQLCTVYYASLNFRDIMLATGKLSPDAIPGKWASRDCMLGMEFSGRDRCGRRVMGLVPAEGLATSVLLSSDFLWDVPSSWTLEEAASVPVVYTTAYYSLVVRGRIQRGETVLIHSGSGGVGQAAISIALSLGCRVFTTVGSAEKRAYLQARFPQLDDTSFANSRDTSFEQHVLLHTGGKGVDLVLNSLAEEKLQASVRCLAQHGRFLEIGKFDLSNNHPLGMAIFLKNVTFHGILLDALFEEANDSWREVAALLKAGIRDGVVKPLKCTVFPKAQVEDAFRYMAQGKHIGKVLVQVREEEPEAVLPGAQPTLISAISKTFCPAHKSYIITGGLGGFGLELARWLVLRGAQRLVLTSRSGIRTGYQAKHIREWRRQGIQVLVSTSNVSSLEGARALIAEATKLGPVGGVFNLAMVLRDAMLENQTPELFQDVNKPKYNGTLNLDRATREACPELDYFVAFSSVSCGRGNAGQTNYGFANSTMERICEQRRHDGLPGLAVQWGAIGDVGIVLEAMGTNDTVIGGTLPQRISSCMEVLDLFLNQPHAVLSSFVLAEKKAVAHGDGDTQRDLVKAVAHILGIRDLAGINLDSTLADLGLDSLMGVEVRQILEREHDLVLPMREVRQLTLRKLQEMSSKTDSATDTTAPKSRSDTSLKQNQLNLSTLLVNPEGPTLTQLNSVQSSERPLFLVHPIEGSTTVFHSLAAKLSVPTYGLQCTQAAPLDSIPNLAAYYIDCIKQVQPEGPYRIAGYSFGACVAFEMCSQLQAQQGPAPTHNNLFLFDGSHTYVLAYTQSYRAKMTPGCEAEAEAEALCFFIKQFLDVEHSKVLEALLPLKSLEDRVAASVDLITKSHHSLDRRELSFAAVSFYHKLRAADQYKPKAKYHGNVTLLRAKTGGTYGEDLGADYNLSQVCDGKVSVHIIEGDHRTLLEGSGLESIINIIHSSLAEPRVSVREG", "experiment": "FAS enzyme activity of treated 3T3-L1 adipocytes", "assay_type": "cell-based", "parameters": "endogenous in cells; host or cells: 3T3-L1 adipocytes (treated cells, then lysed)", "settings": "3T3-L1 adipocytes, rAIM 5 μg/ml, 6 days", "method": "The influence of AIM on FAS activity of adipocyte or adipose tissue was examined. FAS activity was measured by the method of Kelley (Kelley et al., Biochem. J., 1986, 235:87-90) with slight modification. 3T3-L1 adipocytes, or lysates of adipose tissue of obese mice was mixed with acetyl-CoA and NADPH (0.2 M […] phosphate buffer [pH 7.0] containing 0.4 mM EDTA), and the mixture was placed in a spectrophotometer cuvette and maintained at 30° C. 20 μl of malonyl-CoA solution (0.2 mM) was added to start an enzyme reaction and decrease of OD was measured at a chart speed 2 cm/min. Based on the results, the enzyme activity of FAS was evaluated using the molar extinction coefficient of […] NADPH as 6220.\nFirst, the FAS activity of 3T3-L1 cells treated for 6 days in the presence or absence of rAIM (5 μg/ml), and in the presence of C75 (25 μM) was measured. Moreover, the FAS activity of adipose tissues of AIM^+/+ mice and AIM^−/− mice and the FAS activity of adipose tissue of AIM^−/− mice administered with rAIM or BSA 3 hr before by intraadipose topical injection are shown in FIGS. 28 and 29, respectively.\nAll mice were fed with HFD for 20 weeks. The samples were dissolved (lysed) and the FAS activity was measured. The data was converted to that based on FAS protein, according to the results of WB performed using the same sample."}, "[3]": {"system": "CD36-/- mice", "experiment": "rAIM uptake into adipose tissue of CD36+/+ and CD36-/- mice", "assay_type": "in vivo", "settings": "rAIM intravenous 300 μg/mouse, 16 hr", "method": "Then, CD36^+/+ mice (wild-type) and CD36^−/− mice (Febbraio et al., J. Biol. Chem., 1999, 274:19055-19062) were intravenously injected with rAIM (300 μg/mouse in PBS), sacrificed 16 hr later, and a section was prepared from adipose tissue. AIM and macrophage F4/80 in the section were stained."}, "[4]": {"system": "3T3-L1 adipocytes", "experiment": "Glycerol and free fatty acid released in culture supernatant", "assay_type": "cell-based, mouse", "settings": "rAIM 5 μg/ml, day 2, day 4, day 6", "method": "rAIM was loaded (5 μg/ml) on 3T3-L1 adipocytes, the amount of glycerol or free fatty acid released in the culture supernatant was measured on day 2, day 4, and day 6. After rAIM loading, the cells were washed twice with PBS, and incubated in a serum-free medium (FreeStyle™ 293 Expression Medium; Invitrogen) for 5 hr. The buffer was recovered, and the measurement was performed using a glycerol assay kit and a fatty acid assay kit (both Bio Vision Inc.) and according to the manual."}, "[5]": {"system": "3T3-L1 cells", "experiment": "Expression of adipocyte markers by quantitative real-time PCR", "assay_type": "cell-based, mouse", "settings": "day 12", "method": "The cells cultured in schedules A-D shown in FIG. 13 were recovered on day 10 from the start of the differentiation induction stimulation (day 12), and expression of adipocyte markers (C/EBPα, PPARγ1, PPARγ2, CD36, Glut4) at mRNA level was measured using 7500 Fast Real-Time PCR system (Invitrogen; CA, USA) by ΔΔCT method."}, "[6]": {"system": "differentiated 3T3-L1 cells", "experiment": "Lipid droplet fusion in differentiated 3T3-L1 cells, oil-red-O", "assay_type": "cell-based, mouse", "settings": "rAIM 5 μg/ml", "method": "The differentiated 3T3-L1 cells were loaded with rAIM (5 μg/ml) according to the schedule shown in FIG. 13, E. The oil-red-0 staining was performed before and after rAIM loading.\nThe relative size of lipid droplet (Relative droplet size) was determined from an average diameter of 50 lipid droplets. […] The number of cells containing lipid droplets per unit area was measured in 5 different fields and the average was determined."}, "[7]": {"target": "T1, FAS", "experiment": "Co-immunoprecipitation of AIM-HA and FLAG-FAS or FAS domains in HEK 293T cells", "assay_type": "binding", "parameters": "expressed in transfected cells; host or cells: HEK 293T cells co-expressing AIM-HA", "settings": "HEK 293T cells co-expressing HA-tag rAIM and FLAG-tag FAS", "description": "In HEK 293T cells, rAIM labeled with HA-tag and FAS labeled with FLAG-tag were co-expressed, and the binding of AIM and FAS was confirmed by co-immunoprecipitation using an anti-Flag antibody or anti-HA antibody.\nThen, the AIM binding region in FAS was examined. FAS contains 8 domains of keto acyl synthase (KS), malonyl/acetyl transferase (MAT), dehydrase (DH), central core (CC), enoylreductase (ER), keto reductase (KR), acylcarrier protein (ACP) and thioesterase (TE).\nThe N-terminal of each domain of FAS was labeled with Flag sequence, and expressed in HEK293T cells where AIM-HA is stably expressed. The binding of AIM-HA and each domain of FAS was confirmed by co-immunoprecipitation using an anti-Flag antibody or anti-HA antibody.\nThe sequence encoding full-length FAS cDNA (nucleotide: +1-7515) labeled with FLAG-tag was constructed using a part of the cDNA clone provided by Dr. Ohara (Kazusa DNA Research Institute) and some fragments cloned by RT-PCR and pFLAG-CMV2 vector (Sigma).\nA cDNA fragment encoding KS, MAT, DH, CC, ER, KR, ACP or TE was prepared by subcloning to pFLAG-CMV2 vector by using full-length FAS cDNA as a template."}, "[8]": {"system": "AIM knockout mice", "experiment": "Macrophage infiltration into adipose tissue after systemic rAIM administration", "assay_type": "in vivo, mouse", "settings": "intravenous injection 50 μg/body/injection, 3 weeks", "method": "Then, rAIM was systemically administered to the AIM knockout mice by intravenous injection (50 μg/body/injection). After the administration was continued for 3 weeks, a section produced from the visceral fat tissue was stained with an anti-macrophage monoclonal antibody (F4/80)."}}, "data": [{"molecule": "rAIM: recombinant AIM protein (rAIM) of mouse, HA-tagged, prepared in HEK293T cells (protein, left off: small tags and cut ends, recombinant AIM protein (rAIM) of mouse, HA-tagged, prepared in HEK293T cells) ESPTKVQLVGGAHRCEGRVEVEHNGQWGTVCDDGWDRRDVAVVCRELNCGAVIQTPRGASYQPPASEQRVLIQGVDCNGTEDTLAQCELNYYVFDCSHEEDAGAQCENPDSDLLFIPEDVRLVDGPGHCQGRVEVLHQSQWSTVCKAGWNLQVSKVVCRQLGCGRALLTYGSCNKNTQGKGPIWMGKMSCSGQEANLRSCLLSRLENNCTHGEDTWMECEDPFELKLVGGDTPCSGRLEVLHKGSWGSVCDDNWGEKEDQVVCKQLGCGKSLHPSPKTRKIYGPGAGRIWLDDVNCSGKEQSLEFCRHRLWGYHDCTHKEDVEVICTDFDV", "values": [{"measurement": "expression of lipid droplet formation-related genes (FSP27, Perilipin, Adipophilin)", "setting": "[1]; day 2, relative to day 0", "value": "decreased markedly"}, {"measurement": "expression of preadipocyte markers (PREF-1)", "setting": "[1]; during rAIM treatment", "value": "did not increase"}, {"measurement": "FAS activity", "setting": "[2]", "value": "markedly suppressed"}, {"measurement": "AIM signal in adipocyte", "setting": "[3]", "value": "markedly decreased"}, {"measurement": "amount of free fatty acids in the culture supernatant", "setting": "[4]", "value": "significantly increased"}, {"measurement": "amount of glycerol in the culture supernatant", "setting": "[4]", "value": "significantly increased"}, {"measurement": "expression of adipocyte markers (C/EBPα, PPARγ1, PPARγ2, CD36, Glut4) mRNA", "setting": "[5]; schedule B", "value": "suppressed"}, {"measurement": "expression of adipocyte markers (C/EBPα, PPARγ1, PPARγ2, CD36, Glut4) mRNA", "setting": "[5]; schedule D as printed, AIM administered simultaneously with differentiation induction stimulation", "value": "suppressed"}, {"measurement": "expression of adipocyte markers (C/EBPα, PPARγ1, PPARγ2, CD36, Glut4) mRNA", "setting": "[5]; schedule D, AIM only before differentiation induction", "value": "expressed"}, {"measurement": "number of lipid droplet-containing cells per unit area", "setting": "[6]; 6 days", "value": "significantly decreased"}, {"measurement": "relative size of lipid droplets", "setting": "[6]; 6 days", "value": "significantly decreased"}, {"measurement": "lipid droplet in the cell (oil-red-O)", "setting": "[6]; 6 days of culture", "value": "markedly decreased"}, {"measurement": "binding of AIM and FAS (co-immunoprecipitation)", "setting": "[7]", "value": "coprecipitated"}, {"measurement": "infiltration of macrophages into adipose tissue (F4/80 staining of visceral fat section)", "setting": "[8]", "value": "infiltration of macrophages into adipose tissue"}]}]}
